Experimental data published in patent US20220153851A1 (Five Prime, published 2022).

Experiments:
cynoCSF1R ECD-Fc [1] = target: T1, cynoCSF1R ECD-Fc (cynomolgus); assay: ELISA, plate coated with cynoCSF1R ECD-Fc
T1 construct: also called cynomolgus CSF1R ECD
Procedure: (§1) Ninety-six well clear-bottom ELISA plates were coated overnight with 1 μg/ml recombinant hCSF1R ECD.506-Fc (SEQ ID NO: 6; FivePrime Therapeutics) or Human M-CSF R Fc Chimera (R&D Systems) in PBS. The next morning, wells were washed four times with 0.05% Tween20 in PBS (PBST) and blocked with Blocker-Blotto (Pierce). Fifty μl of 0.5× serial dilutions of the humanized antibody or parental chimeric antibody, beginning with 2000 ng/ml, diluted 1:1 in Blocker-Blotto were added to the CSF1R-coated wells. After incubation at room temperature (RT) for 90 min, wells were washed four times with PBST, and a 1:5000 dilution of a peroxidase-conjugated Goat anti-Human kappa Light chain antibody (Sigma) in Blocker-Blotto was added to each well. After incubation at RT for 60 min, wells were washed four times with PBST, and 50 μl o-phenylenediamine dihydrochloride peroxidase substrate (Sigma) was added to each well. After incubation at RT for 30 min, A450 values of each well were read directly on a SpectraMaxPlus spectrophotometer with SoftMaxPro software (Molecular Devices).
The binding curve for each humanized antibody binding to cynomolgus CSF1R ECD was determined as described above for human CSF1R, except the wells of the clear-bottom ELISA plates were coated overnight with 2 μg/ml recombinant cynoCSF1R ECD-Fc (FivePrime Therapeutics, SEQ ID NO: 8, but without the 19 amino acid leader sequence).

cynoCSF1R ECD-Fc [2] = target: T1, cynoCSF1R ECD-Fc; assay: competition ELISA, blocking of human IL34 binding to cynoCSF1R ECD-Fc
hCSF1R ECD.506-Fc = target: T2, hCSF1R ECD.506-Fc (human); assay: ELISA, plate coated with human CSF1R ECD-Fc
T2 construct: also called human CSF1R ECD-Fc fusion protein; human CSF1R ECD
Procedure: as §1

mCSF1R ECD-Fc = target: T3, mCSF1R ECD-Fc (mouse); assay: ELISA, plate coated with mCSF1R ECD-Fc, detection anti-human kappa-HRP, A450
T3 construct: also called mouse CSF1R ECD
Procedure: as §1
The binding curve for each humanized antibody binding to mouse CSF1R ECD was determined as described above for human CSF1R, except the wells of the clear-bottom ELISA plates were coated overnight with 2 μg/ml recombinant mCSF1R ECD-Fc (FivePrime Therapeutics, SEQ ID NO: 93).

hCSF1R ECD.506 = target: T4, hCSF1R ECD.506 (human, UniProt P07333 20-506); assay: SPR Biacore T100, antibody captured on anti-human IgG, hCSF1R ECD.506 as analyte, 1:1 model
T4 construct: also called human CSF1R ECD
Procedure: The kₐ, kd, and KD for binding to human CSF1R ECD was determined for each of the humanized antibodies as follows.
Binding kinetics of anti-CSF1R humanized antibodies to CSF1R ECD was determined using Biacore T100 Surface Plasmon Resonance (SPR) (GE Healthcare Life Sciences, Piscataway, N.Y.). Each of the humanized anti-CSF1R antibodies was captured on a CM5 sensor chip immobilized with anti-Human IgG antibody using the Human antibody capture kit (GE Healthcare Life Sciences, Piscataway, N.Y.) at 150 RU so that the Rmax value for hCSF1R ECD.506 (SEQ ID NO: 5) binding was 100 RU. Rmax values of less than 150 RU are recommended for accurately determining kinetic values. […] The association constant, dissociation constant, affinity, and binding capacity of each of the Fabs for human CSF1R ECD was calculated using the Biacore T100 Evaluation software package using the 1:1 binding model.

cynoCSF1R ECD-Fc [3] = target: T1, cynoCSF1R ECD-Fc; assay: competition ELISA, blocking of human CSF1 binding to cynoCSF1R ECD-Fc
Procedure: The humanized antibodies, along with the parental chimeric antibodies (cAbs), were tested for their ability to block human CSF1 binding to human and cynomolgus CSF1R ECD, as follows.
Recombinant Human CSF1 (M-CSF; R&D Systems) was biotinylated using an NH₂-Biotin Labeling Kit (Dojindo Molecular Technologies). One hundred μl of 1 μg/ml biotinylated CSF1 in PBST/0.1% BSA was added to the wells of Reacti-Bind Streptavidin coated plates (Pierce) pre-blocked with SuperBlock blocking buffer (Pierce) according to the manufacturer's instructions. Fifty μl of 0.5× serial dilutions of the humanized antibody or parental chimeric antibody, beginning with 2000 ng/ml, was incubated with 50 ng/ml hCSF1R ECD.506-Fc (SEQ ID NO: 6; FivePrime Therapeutics) or 50 ng/ml cynoCSF1R ECD-Fc (FivePrime Therapeutics, SEQ ID NO: 8, but without the 19 amino acid leader sequence) in 100 μl PBST/0.1% BSA for 90 min at RT, after which the admix was transferred to one or more wells of a ligand-coated plate. After 90 min at RT, wells were washed with PBST, and a 1:5000 dilution of an Fc-fragment-specific peroxidase-conjugated goat anti-human IgG (Jackson Immuno Research) in PBST/0.1% BSA was added to each well. After incubation at RT for 60 min, wells were washed with PBST/0.1% BSA, and o-phenylenediamine dihydrochloride peroxidase substrate (Sigma) was added to each well. After incubation at RT for 30 min, A450 values of each well were read directly on a SpectraMaxPlus spectrophotometer with SoftMaxPro software (Molecular Devices).

[4] = target: human CSF1R on CSF1R (SEQ ID NO: 2)-transfected CHO cells (human, UniProt P07333 20-972); assay: cell-based or functional assay

B1: h0301-L0H1 (antibody, human IgG4 S228P, kappa)
heavy: not shown
light: EIVLTQSPATLSLSPGERATLSCKASQSVDYDGDNYMNWYQQKPGQAPRLLIYAASNLESGIPARFSGSGSGTDFTLTISSLEPEDFAVYYCHLSNEDLSTFGGGTKVEIKRTVAAPSVFIFPPSDEQLKSGTASVVCLLNNFYPREAKVQWKVDNALQSGNSQESVTEQDSKDSTYSLSSTLTLSKADYEKHKVYACEVTHQGLSSPVTKSFNRGEC
notes: also called Ab2; huAb 0301-L0H1
B1 gave an EC50 (cynoCSF1R ECD-Fc [1]) of 0.0144 µg/mL, an IC50 (cynoCSF1R ECD-Fc [2]) of 0.0364 µg/mL and an EC50 (hCSF1R ECD.506-Fc) of 0.0142 µg/mL. For the same binder, the binding result (mCSF1R ECD-Fc) was “no binding (tested: 2000 ng/ml)”, the Kd (hCSF1R ECD.506) was 0.34 nM and the koff (hCSF1R ECD.506) was 0.00122 s⁻¹. The kon (hCSF1R ECD.506) was 3.56e+06 M⁻¹ s⁻¹, the IC50 (cynoCSF1R ECD-Fc [3]) was 0.0274 µg/mL and the “IC50, inhibition of CSF1-induced CSF1R phosphorylation (head prints 'Human CSF1/Human CSF1R ECD IC50')” value [4] was 0.778 µg/mL. The “IC50, inhibition of IL34-induced CSF1R phosphorylation (head prints 'Human IL34/Human CSF1R ECD IC50')” value [4] was 0.453 µg/mL.

B2: h0301-L0H2 (antibody, human IgG4 S228P, kappa)
heavy: not shown
light: EIVLTQSPATLSLSPGERATLSCKASQSVDYDGDNYMNWYQQKPGQAPRLLIYAASNLESGIPARFSGSGSGTDFTLTISSLEPEDFAVYYCHLSNEDLSTFGGGTKVEIKRTVAAPSVFIFPPSDEQLKSGTASVVCLLNNFYPREAKVQWKVDNALQSGNSQESVTEQDSKDSTYSLSSTLTLSKADYEKHKVYACEVTHQGLSSPVTKSFNRGEC
notes: also called Ab3; huAb 0301-L0H2
B2 was tested, and the EC50 (cynoCSF1R ECD-Fc [1]) was 0.0138 µg/mL, the IC50 (cynoCSF1R ECD-Fc [2]) was 0.0374 µg/mL and the EC50 (hCSF1R ECD.506-Fc) was 0.0148 µg/mL. For the same binder, the binding result (mCSF1R ECD-Fc) was “no binding (tested: 2000 ng/ml)”, the Kd (hCSF1R ECD.506) was 0.28 nM and the koff (hCSF1R ECD.506) was 0.00066 s⁻¹. The kon (hCSF1R ECD.506) was 2.32e+06 M⁻¹ s⁻¹, the IC50 (cynoCSF1R ECD-Fc [3]) was 0.028 µg/mL and the “IC50, inhibition of CSF1-induced CSF1R phosphorylation (head prints 'Human CSF1/Human CSF1R ECD IC50')” value [4] was 1.32 µg/mL. For the same binder, the “IC50, inhibition of IL34-induced CSF1R phosphorylation (head prints 'Human IL34/Human CSF1R ECD IC50')” value [4] was 0.481 µg/mL.

B3: h0301-L1H2 (antibody, human IgG4 S228P, kappa)
heavy: not shown
light: NIVLTQSPATLSLSPGERATLSCKASQSVDYDGDNYMNWYQQKPGQAPRLLIYAASNLESGIPARFSGSGSGTDFTLTISSLEPEDFAVYYCHLSNEDLSTFGGGTKVEIKRTVAAPSVFIFPPSDEQLKSGTASVVCLLNNFYPREAKVQWKVDNALQSGNSQESVTEQDSKDSTYSLSSTLTLSKADYEKHKVYACEVTHQGLSSPVTKSFNRGEC
notes: also called Ab6; huAb 0301-L1H2
B3 showed an EC50 (cynoCSF1R ECD-Fc [1]) of 0.0166 µg/mL, an IC50 (cynoCSF1R ECD-Fc [2]) of 0.0365 µg/mL and an EC50 (hCSF1R ECD.506-Fc) of 0.0162 µg/mL. The binding result (mCSF1R ECD-Fc) was “no binding (tested: 2000 ng/ml)”, the Kd (hCSF1R ECD.506) was 0.25 nM and the koff (hCSF1R ECD.506) was 0.000742 s⁻¹. The kon (hCSF1R ECD.506) was 2.95e+06 M⁻¹ s⁻¹, the IC50 (cynoCSF1R ECD-Fc [3]) was 0.0278 µg/mL and the “IC50, inhibition of CSF1-induced CSF1R phosphorylation (head prints 'Human CSF1/Human CSF1R ECD IC50')” value [4] was 0.682 µg/mL. The “IC50, inhibition of IL34-induced CSF1R phosphorylation (head prints 'Human IL34/Human CSF1R ECD IC50')” value [4] was 0.397 µg/mL.

B4: h0301-L1H1 (antibody, human IgG4 S228P, kappa)
heavy: not shown
light: NIVLTQSPATLSLSPGERATLSCKASQSVDYDGDNYMNWYQQKPGQAPRLLIYAASNLESGIPARFSGSGSGTDFTLTISSLEPEDFAVYYCHLSNEDLSTFGGGTKVEIKRTVAAPSVFIFPPSDEQLKSGTASVVCLLNNFYPREAKVQWKVDNALQSGNSQESVTEQDSKDSTYSLSSTLTLSKADYEKHKVYACEVTHQGLSSPVTKSFNRGEC
notes: also called Ab5; huAb 0301-L1H1
Work on B4 yielded an EC50 (cynoCSF1R ECD-Fc [1]) of 0.0167 µg/mL, an IC50 (cynoCSF1R ECD-Fc [2]) of 0.0424 µg/mL and an EC50 (hCSF1R ECD.506-Fc) of 0.0165 µg/mL. The binding result (mCSF1R ECD-Fc) was “no binding (tested: 2000 ng/ml)”, the Kd (hCSF1R ECD.506) was 0.32 nM and the koff (hCSF1R ECD.506) was 0.000921 s⁻¹. For the same binder, the kon (hCSF1R ECD.506) was 2.87e+06 M⁻¹ s⁻¹, the IC50 (cynoCSF1R ECD-Fc [3]) was 0.0311 µg/mL and the “IC50, inhibition of CSF1-induced CSF1R phosphorylation (head prints 'Human CSF1/Human CSF1R ECD IC50')” value [4] was 0.814 µg/mL. The “IC50, inhibition of IL34-induced CSF1R phosphorylation (head prints 'Human IL34/Human CSF1R ECD IC50')” value [4] was 0.384 µg/mL.
